Source: IntAct's records for PubMed 22274616

B1: Protein PML (Homo sapiens), P29590 (parent)
chain: MEPAPARSPRPQQDPARPQEPTMPPPETPSEGRQPSPSPSPTERAPASEEEFQFLRCQQCQAEAKCPKLLPCLHTLCSGCLEASGMQCPICQAPWPLGADTPALDNVFFESLQRRLSVYRQIVDAQAVCTRCKESADFWCFECEQLLCAKCFEAHQWFLKHEARPLAELRNQSVREFLDGTRKTNNIFCSNPNHRTPTLTSIYCRGCSKPLCCSCALLDSSHSELKCDISAEIQQRQEELDAMTQALQEQDSAFGAVHAQMHAAVGQLGRARAETEELIRERVRQVVAHVRAQERELLEAVDARYQRDYEEMASRLGRLDAVLQRIRTGSALVQRMKCYASDQEVLDMHGFLRQALCRLRQEEPQSLQAAVRTDGFDEFKVRLQDLSSCITQGKDAAVSKKASPEAASTPRDPIDVDLPEEAERVKAQVQALGLAEAQPMAVVQSVPGAHPVPVYAFSIKGPSYGEDVSNTTTAQKRKCSQTQCPRKVIKMESEEGKEARLARSSPEQPRPSTSKAVSPPHLDGPPSPRSPVIGSEVFLPNSNHVASGAGEAEERVVVISSSEDSDAENSSSRELDDSSSESSDLQLEGPSTLRVLDENLADPQAEDRPLVFFDLKIDNETQKISQLAAVNRESKFRVVIQPEAFFSIYSKAVSLEVGLQHFLSFLSSMRRPILACYKLWGPGLPNFFRALEDINRLWEFQEAISGFLAALPLIRERVPGASSFKLKNLAQTYLARNMSERSAMAAVLAMRDLCRLLEVSPGPQLAQHVYPFSSLQCFASLQPLVQAAVLPRAEARLLALHNVSFMELLSAHRRDRQGGLKKYSRYLSLQTTTLPPAQPAFNLQALGTYFEGLLEGPALARAEGVSTPLAGRGLAERASQQS

Variants of: B1
Conditions: with per2_mouse Per2, O54943
Chain of per2_mouse Per2, O54943 (O54943 whole entry): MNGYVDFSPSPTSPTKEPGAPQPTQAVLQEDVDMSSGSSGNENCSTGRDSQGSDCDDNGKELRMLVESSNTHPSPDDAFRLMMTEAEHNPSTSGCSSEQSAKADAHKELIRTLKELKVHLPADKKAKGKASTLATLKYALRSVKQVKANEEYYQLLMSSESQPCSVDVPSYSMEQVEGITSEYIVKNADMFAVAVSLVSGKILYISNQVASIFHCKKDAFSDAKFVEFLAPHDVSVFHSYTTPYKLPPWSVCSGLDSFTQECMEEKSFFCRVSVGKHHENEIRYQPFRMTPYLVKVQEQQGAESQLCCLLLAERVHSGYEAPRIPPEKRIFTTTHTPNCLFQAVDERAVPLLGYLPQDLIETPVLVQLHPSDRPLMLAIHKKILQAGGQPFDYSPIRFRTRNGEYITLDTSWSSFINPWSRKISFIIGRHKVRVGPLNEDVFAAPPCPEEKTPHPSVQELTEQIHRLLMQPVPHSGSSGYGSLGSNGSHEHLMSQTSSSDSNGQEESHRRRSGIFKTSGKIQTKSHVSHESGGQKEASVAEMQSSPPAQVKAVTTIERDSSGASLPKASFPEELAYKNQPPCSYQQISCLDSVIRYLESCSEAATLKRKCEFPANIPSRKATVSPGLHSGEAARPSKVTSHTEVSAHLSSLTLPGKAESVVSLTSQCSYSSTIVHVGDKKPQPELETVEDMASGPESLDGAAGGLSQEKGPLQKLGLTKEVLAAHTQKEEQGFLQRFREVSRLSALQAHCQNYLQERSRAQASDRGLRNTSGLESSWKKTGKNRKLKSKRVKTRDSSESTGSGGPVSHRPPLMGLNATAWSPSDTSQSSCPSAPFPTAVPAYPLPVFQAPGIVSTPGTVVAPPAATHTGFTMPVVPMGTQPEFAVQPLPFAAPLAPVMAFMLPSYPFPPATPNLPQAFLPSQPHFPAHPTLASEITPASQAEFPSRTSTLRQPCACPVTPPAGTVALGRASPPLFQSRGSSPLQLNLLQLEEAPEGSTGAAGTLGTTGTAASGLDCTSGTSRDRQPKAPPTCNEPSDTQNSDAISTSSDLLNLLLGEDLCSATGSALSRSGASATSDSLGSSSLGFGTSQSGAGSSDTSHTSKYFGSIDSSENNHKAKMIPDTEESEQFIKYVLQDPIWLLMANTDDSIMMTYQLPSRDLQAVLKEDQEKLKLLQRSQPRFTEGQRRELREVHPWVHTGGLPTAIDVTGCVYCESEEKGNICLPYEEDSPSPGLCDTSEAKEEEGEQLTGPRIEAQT

Variant	effect of a mutation on the interaction
K487R	decreasing interaction strength
